The domain aggregation screens of Martell et al. (2025)

Experiment: soluble fraction after stress (log2 fold change); higher = more stays soluble; pooled small domains, quantitative proteomics
Conditions: stress: 50 degC
Outline: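 Each library was heated to 50°C as a stress step. The libraries, made up of small protein domains, were pooled and analysed at high throughput by quantitative proteomics. The reported value is the base-two logarithm of the fold change in each protein's soluble amount after stress, taken as a measure of aggregation propensity. The higher the value, the more protein stays in solution.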

Sequence	soluble fraction (log2)
HMAIPTTDSDKATDAQIKQIKLLGDIHPNLKLDAWLERNHVTWETLTREQAGNMMKAIKNKYGD	-0.00881
HMGGDFVEHLKDLASEAPVIRLVNTIIGRVIDLRASDIHLEPFDDGLHVRYRVDGVIHPGELVPPRLS	0.0558
HMNGKWKLRIIKELLHSNIRFGQILKNIPDISPKVLSQQLKEMEEDGIIERIVISEMPPNVEYVLTDMGE	-0.789
HMEPDDLTVIKGIGPVAAKDLNEQGIITFAQLAKLSDKDVAKIDEHMPFSADQIKDWREQAKELAK	0.263
HMNKAYLTVADMKKDKSLKNGDVVRTLGYYGYNDGDGAVYQIKDSHPEDYHIRLDNGLDAEQINY	0.012
HMKEILTNESIIQFVKDKVSEEQIIYKINNSPIDFKLDVNSMVSLAKQNVSSTIIIAMENAMNN	-0.256
HMSWEQELIEKANEIIDLYPEKRSALGPLLYLAQERDGYISDESIVEISNLVGITEVQVKSVASFYSMYK	-3.57
HMQERQREGFVQQLRGKYSGQVVMRLFPELQGKALGEFMRKFEAQWEDHEAVLAAMEAHEIESRLKVFK	-0.965
HMDAMQAFPNPTVDEIHFVTPTTGRVYNAHGQLVMVLKNAQLVNVRQWSAGQYVIVREDGYAVRWIK	-1.04
HMESSYKGFILDIETRQFSPTLIQRRGIAINPSGIVETTTEFSFATQEKVLIEDLKLIIDELDLRADY	-4.07
HMEDNYYENKINYLFGYLDEADKEISVNSILDFHLAHRTNPEFVFEPKKNTNPLIWKYLSNSNLLY	-0.0177
HMIMTEKEKKLLNRYIMHDTIHKLYHEQNKSMRWIADNLGINFRTVQKYLDMDSGEFQKYSESISNR	-0.48
HMDFSSRLKDERKRLKLSQAQLGEAGGVSKDAQLNYENGSRSPSASYLELIAREGVDVQFLLTGKRS	0.0732
HMDYTPIEVKDLPQAIQDALTKNFSEYTVKSAAYQEDEDGVKIYQVTVVDEEGTEANIFFTEKGE	0.0163
HMTKEEKEKREKYEKLMKKADELVTAKNHKEAVTVLGQAKAYANPQQTKEIEEKIKAQTAELDKG	0.239
HMFTLDDLQATYDIFERAEQNSDAMLAFQKVITAEGLDFDLTSPQGIVDFFKGAAPTEIYDLYEAS	-0.403
HMIDAAHLEKAILSLPEGARAVFVLIETEGFAHREVAELLGISEGTSKSQLNYAKKRLREILV	-0.311
HMKMLEINDNDSVGLKNLKTQYNHNQKVIENFQLEINKVINDGELPDKYLLDGMEKYQKLNMQIMSTIEKQ	0.00483
HMGRYDWIEQIDDPVLAERLKHLTEDDLELLTRYVFEDATQKELASQYGIGQQSVSKRLKKLKSFLTK	0.00228
HMHNISQTGRRIAGMTQERWAEALDISVESVRLYESGRGMPSDDVATRMVEVSGAPVLGYWH	-0.407
HMDPLADLFSRIRNAQMRNKKVVTSPASKLRAGILEVLAKEGYIRGYAMTQHASGKNELDIELN	-1
HMRQYPSGVFKEEGVKAVYIHAGTPFLVIAAQYKIPLARLFEWNNLLPSTEARISQVIYLERPG	-3.67
HMPLRPNQRQFIHLMVYQGLDRNEAYAQANNKVLTEENYESIRTAAAKTFYTPHVNNYYHALMEEIRDRE	-0.299
HMAHKRVDGTIVTPLTADTIVLRTGTHGEQPFEIRDTTRHKLESLQKGDMVILLIDTDNKVIDVAIPP	0.423
HMTTTPAERQRTILRSLNRVDPVSVDALARLTGVSVVTIRRDLSDLASRDLIRRVHGGALLPTR	-0.917
HMIQHFARKRRQLELAVQRLSGRMAETNGQVTADMQRLIQQVKALVAELSHVFSRAYLRRVLGGVALVIGS	-0.104

Sequence	soluble fraction (log2)
HMGASTQLVEIKNAYENGEWQNVIDLAGKLHEKYNGSEEDKEAQEMAKNSQSKLDEAAAAKAAEEA	-0.033
HMSAPQKWDGSLQDFIRFKQEAKTLMDNIPNKRLALNAILETISDGKMRKRLAKYDGPESALKSLELEFGN	-0.0592
HMSSDLESVIGTHSQEANFALRSWGWIQPDETWKNLRPDQVSQILERANEFMAKAIESFANAQSE	-0.14
HMKTKTFSPGEIVKIQTRDKSWQGTILESHDPEIILLKLTTGYNIGIRENEIINAKVIEKSKKDVKDAE	0.183
HMALTLDEARTQGRVGETFYGYLVALKTDAETEKLVNDINAERKASYQQLAKQNNVSVDDIAKLAGQKLV	0.0405
HMEFENIEQRKQYWSDLYRELKAGQDAYAKELKKGTEGYTQDELDILKEFTDEAKKQMEAAGVEATDEFAS	-0.187
HMRQSIHTALQLLTPREEEVLNLLVSGKSNKQVAEHFSLSSKTIERHRSSVMRKLDASSFAQLVRIAALR	-3.51
HMDTSADEVKQLIASFVEQEDKRKPLSDQKIVELLAEKEQKISRRTVAKYRDALNIPSSSKRKRF	0.0434
HMRTVLSDETYLRIREMLLTHDIAPGERINIDALARELDVSQTPVREALARLESEDLVTKEPLRGYTATK	-0.017
HMIDAKTTLQELTQKSGKKPEYRLIKIEGPDHLRRFTVEVFIDGQSMGTGTGHSKKEAEQNAANFALKNLQ	0.0235
HMEQINVTIQTEKGRIDKVLSEHLPNHSRSQIQQWLKEKHVTVNGETVRANYKVTAGDEIVVTIPEPEV	0.206
HMEQNTKAYEQVRTLTDLLNQYRHEYYNLSAPSVSDQEYDRLFDALAALEKQTGIVMSNSPTQTVG	0.0359
HMAAFGDLLSELRRDMNMTQDELAKVLFVSPGTISNYENNIHFPDVPKLKQIAQYFGVTTDYLLG	-0.405
HMKLVTIPNVIGKTKEDAMKTLKDLGVTVTVETKESEKDDGTVIAQSKAEGTKLTAGENVTITVSKKKK	0.139
HMNDVHELPYSSFIEMVERGHVISVTVKHINIEFESTKNENYRTIAPQAMTPPYLELLLKNKDSVKVTFLP	-1.69
HMKKMSFKEAFLKYVEIKDNPYNMESVKMLVSLQPLIVKAYSILGVDKVRRLNYVKTKIQDAIINGD	-1.9
HMNRQTGTVKWFNDAKGFGFITPESGPDLFVHFRSIQGAGFKSLQEGQRVTFVAVQGQKGMQADQVQA	-0.762
HMTEYFTIESQEGERIDRYLSEELEDKSRSYIQKLIRDGHVLVDGKTVKAGYRLVAGDNIAITLPEI	-0.0879
HMRAAKSEDTRTRLIEGGMALFGQKGYNATGIKDITDAAGVPKGSFYNYFASKEDFGAEIIHSY	0.122
HMVRGNLAEELLKLREEEGISFQEAGARSGIARSTISQVVNQGLRLKPNQEESLWRVIEEVRGVKER	0.046
HMQVSDEGAIQLLVQKAIEENPQAIEAFRGGKTSALGPVVGWVMKQSKGAANPTMVKTLLEKAI	0.293
HMSPREDQQSRKQHILEAAAVLFAERGYYKTTTADVARAVGVTQPYVFHFFKSKEELYLAVL	-0.0115
HMPAELGVVVRNANLRSGPGTKYAIVGSAPAGTTVRIAGTNKAGDWYHLSSGRWIAAFLVDRN	-0.941
HMTTGTVKWFNDAKGFGFITPDDRSVDVFVHYSNIVGQSGRRTLMEGERVEYEAIEGPKGPQATDVARA	-0.304
HMSTPLVATLRKRIIDGHYPPGERLAEIPVAEAFGVSRTPVRLAFRTLEQEGLLEKAGKRGYAVRA	0.0325
HMEITTLTGVLGAGRLDSALAAALPQYSRARIQALISDAALRINGQVVADAGSKKMSGQTFELNIPAPVP	-0.31

Sequence	soluble fraction (log2)
HMIYKLTLLRDLPEAKAGFDFYLRGGLASHDGEEWFSWVTREPIYARLYWLYVEKREEWVLVEETDI	-4.46
HMSFPLKRGSKGNRVTQLQNALVKKFGASILPKYGVDGMFGKEVEAALVRAKLPTSINESTYNSFV	0.12
HMSISEADAKKIALEKVPGATDSNLRIKTDYDDGIMKYEVKIVYNEMKYEFDIDAATGTILEWESESVY	-0.659
HMQNFLSITSKEKIDIGNFQLISFKFENNLYDYVISGNKSELLIFQEKTIENNNENIEKITSNF	-2.06
HMISDEELLVSTKKEIMSLATVLTKTDKKDDAIAIMKEYDPAANPNRIKDVNKAKELLERLQKLG	-0.125
HMRPQYVDLFTKLSAEEAGAITSKLKELKVEYQLADNGSTIKVPQKDAAEIRLELANEGLPA	0.141
HMRDITAQSNASELYFEERDLEAFIEKLERLYPEIRYVNRLMIHSWGQQVVRFFDPDGNLIEVGTP	-0.145
HMFAATGVVNAPSGLVLRETASKGGNPLATVPDKAQVEIVEEDGEWYKVKVNEQTGYLFAEFVNKTE	0.0336
HMETWDQAYETIKQNILNLTYPPGMPLTEAKLAEELGMSRSPVRTALRMLQTDGLIVTDYYKSMTVKEI	-1.71
HMDYKSNLQEMVQTTKKSVTYELVKEEGPAHDRTFTMNVIVDGIVLGTGTAKSKKEAEQEAAHQALEKKA	-0.0398
HMGITRQQALQQINQSASPKKILNASLGKRGSEFVWDIGYLSKSGKLNYVTYSFRSGEQLNAIKN	-1.02
HMGHEISLNNSRFLKLLNKTKISISNDDTRHYLNGIFLHLTEAHGRQFLTGVATDSHRLSSSSLEID	-0.0045
HMEGNFFADIRQELMRELDQEAEWSDVQILEKIDDLVLLRTRRSSLTVNEKEQLRKELFYSVRK	-0.0909
HMGSLNDQVMKYIDALPSAFNKRELDFLIERGVKEFALNGEYLEKAIINEYKLTADTYHRER	0.0641
HMESRETGLPVVIISDGRILQDNLKRRGLDLSWLDKQLAEHGYPDFRDVFLLTVDEAGGVYFVPRE	0.333
HMRGWGTVKRRTPKSGRYRASYIGPDGKRYAADHTYAAKVDADAWLSSERALITAGVWTPPTDRVT	-0.286
HMQDQVTLIVQVNGKLRGQISISTDATKELIEQTALANENVQKFVDGQSIKKIIIVPGRLVNIV	-1.12
HMPAEGWEASGDTWRYRQKDGSYITNAWVQDTDGKWYYFDESSLMVRNQTTSDGYYVGEDGVWTET	-0.395
HMARIDYHAMDSDDLSFSEGELLEIYDKPGSFWWKGRSLVSGDEGDIPS	-0.157
HMIPDGKWKEDPISDGQKNFINSLIEQAIDAGQDELGAEAKKYLASGEATKGNASAMIDKLKSAL	0.392
HMGSRAEAKEFLQTMLADGRQLATDMEEARQAHDIADRTLRRARKELNVQVYRDGNAWYWELPTPIK	-0.0501
HMIGERIKRARAAAGLSMQALGKQVGISANMVKKYEHDQSMPSSGVLLKLATALSVRTEYFFRPA	-1.28
HMKGVPGIGDYVKLSGGSTVGKVLSISGKKAEVAFGLLRTTTELSKLEKVRKPKELLQSGVSS	0.269
HMRMLTKRRQDLLLELLEERGSITVSEVKDMLDASESTIRRDITALDEEGKLVKVFGGAVAAR	-0.272
